Consider 13 molecules from US20240166765A1 (ICONIC THERAPEUTICS, published 2024).

Substitutions are numbered along the chain they refer to.

Assay [1] deals with rTF (rat TF) on HEK293 cells (rat, UniProt P42533 29-252). Nature of the assay: live cell staining of transfected HEK293, flow cytometry. In general terms: Flow cytometry measures light scatter and fluorescence of single cells or particles in a stream.
Assay [2] has as its target T1, mouse TF ECD-His6 (mouse, UniProt P20352 29-251).
T1 construct: made in Expi293 cells; also called TF-His; mTF
The experiment in a line: BLI (ForteBio Octet). In general terms: In BLI a coated tip is dipped into the sample, and binding shifts an interference pattern.

For assay [3], the target named is T2, human TF ECD-His6 (human, UniProt P13726 33-251).
T2 construct: made in Expi293 cells; the entry holds the ECD with the C-terminal TG-His6; also called TF-His; hTF
The experiment in a line: BLI (ForteBio Octet).

Assay [4] addresses T3, cynomolgus TF ECD-His6 (cynomolgus monkey (Macaca fascicularis)).
T3 construct: made in Expi293 cells; also called TF-His; cTF
T3 chain: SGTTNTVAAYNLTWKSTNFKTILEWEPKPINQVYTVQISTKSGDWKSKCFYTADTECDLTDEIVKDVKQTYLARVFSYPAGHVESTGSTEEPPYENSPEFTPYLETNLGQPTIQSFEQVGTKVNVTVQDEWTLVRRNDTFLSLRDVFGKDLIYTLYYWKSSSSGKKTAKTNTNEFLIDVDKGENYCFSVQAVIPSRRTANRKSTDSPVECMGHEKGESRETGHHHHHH
Nature of the assay: SPR (Biacore), antibody on chip, TF-His titrated.

The target in assay [5] is T2, human TF ECD-His6. Nature of the assay: SPR (Biacore), antibody on chip, TF-His titrated. For orientation: In SPR one partner is held on a chip, and binding of the other changes the refractive index at the surface.
Assay [6] addresses T3, cynomolgus TF ECD-His6. Nature of the assay: BLI (ForteBio Octet).
The target of assay [7] is relipidated TF (UniProt P13726 33-295, limits assumed). Nature of the assay: cell-based or functional assay.
Assay [8] addresses human Tissue Factor (hTF), endogenously expressed on human TF-positive cells (human, UniProt P13726 33-295). The experiment in a line: cell-based or functional assay.
The target in assay [9] is T4, human Tissue Factor on MDA-MB-231 cells (human, UniProt P13726 33-295). Nature of the assay: cell-based or functional assay.
Assay [10] addresses T4, human Tissue Factor on MDA-MB-231 cells. The experiment in a line: cell-based or functional assay. The source holds these as a separate data set.

Sequence of rTF (rat TF) on HEK293 cells (P42533 29-252): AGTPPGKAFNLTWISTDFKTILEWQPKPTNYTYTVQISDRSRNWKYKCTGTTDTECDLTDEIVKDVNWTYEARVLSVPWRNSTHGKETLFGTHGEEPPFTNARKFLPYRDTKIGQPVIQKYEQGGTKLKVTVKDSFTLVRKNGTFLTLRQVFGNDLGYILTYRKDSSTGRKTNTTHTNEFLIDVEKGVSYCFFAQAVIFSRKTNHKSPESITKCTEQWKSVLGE

B1: M1593 (antibody, V domains shown)
VH: EVQLVQSGAEVKKPGESLRISCKGSGYTFAPYWIEWVRQMPGKGLEWMGDILPGTGFTTYSPSFQGHVTISADKSISTAYLQWSSLKASDTAMYYCARSGYYGNSGFAYWGQGTLVTVSS
VL: DIVMTQTPLSLPVTPGEPASISCKSSQSLLSSGNQKNYLTWYLQKPGQSPQLLIYWASTRESGVPDRFSGSGSGTDFTLKISRVEAEDVGVYYCQNDYTYPLTFGQGTKLEIK
notes: also called 10H10; 10H10 (M1593)
For the molecule B1, the binding result in assay [1] is reported as “no binding (tested: 15 µg/ml (100 nM))”.

B2: 25A5 (antibody, human IgG1, kappa, V domains shown)
VH: QVQLVQSGAEVKKPGASVKVSCKASGYTFDVYGISWVRQAPGQGLEWMGWIAPYSGNTNYAQKLQGRVTMTTDTSTSTAYMELRSLRSDDTAVYYCARDAGTYSPFGYGMDVWGQGTTVTVSS
VL: DIQMTQSPSTLSASVGDRVTITCRASESISNWLAWYQQKPGKAPKLLIYKAYSLEYGVPSRFSGSGSGTEFTLTISSLQPDDFATYYCQQFQKLPPFTFGGGTKVEIKR
notes: human IgG1
As for B2, the Kd (usually the free concentration of one partner at which half of the binding sites on the other are occupied at equilibrium, for simple one-to-one binding) in assay [2] was determined as 188 nM; in assay [3] it was 0.64 nM; in assay [4], 0.04 nM; in assay [5], 0.08 nM.

B3: 25G (antibody, human IgG1, kappa, V domains shown)
VH: B2 VH with D30R, V31S, I51V, S55N, F106Y
VL: B2 VL with E27Q, N31S, Y52S, Y56S, K93S
notes: human IgG1
Turning to B3, the Kd in assay [2] worked out at 114 nM; in [6], 17.5 nM; in [3], 21.9 nM; in assay [4], 18 nM; in [5], 23 nM.

B4: 25A5-T (antibody, human IgG1, kappa, V domains shown)
VH: B2 VH with V31A
VL: B2 VL
notes: human IgG1
For B4, in [1], the binding result was “no binding (tested: 15 µg/ml (100 nM))”.

B5: 43B1 (antibody, human IgG1, V domains shown)
VH: QVQLQESGPGLVKPSQTLSLTCTVSGGSISSGQYWSWIRQHPGKGLEWIGEIYYSGSTRYNPSLKSRVTISVDTSKNQFSLKLSSVTAADTAVYYCARDAPYYYGGGYYYYMDVWGKGTTVTVSS
VL: EIVLTQSPGTLSLSPGERATLSCRASESVDSSYLAWYQQKPGQAPRLLIYGASTRQTGIPDRFSGSGSGTDFTLTISRLEPEDFAVYYCQQAGVVPYTFGGGTKVEIK
notes: human IgG1
Turning to B5, in assay [7], the “TGA without pre-incubation, 10 nM Ab: % Peak IIa” value is 87%; the “TGA without pre-incubation, 10 nM Ab: ETP” value came out at 2290 nM·min; the “TGA without pre-incubation, 10 nM Ab: Lag Time” value was determined as 4.9 min; the “TGA without pre-incubation, 10 nM Ab: Peak IIa” value stood at 299 nM. In [7], the “TGA without pre-incubation, 10 nM Ab: ttPeak” value stood at 8.9 min; the “TGA without pre-incubation, 50 nM Ab: ETP” value turned out to be 2200 nM·min; the “TGA without pre-incubation, 50 nM Ab: Lag Time” value amounted to 5.2 min; the “TGA without pre-incubation, 50 nM Ab: Peak IIa” value stood at 232 nM. Moreover, in [7], the “TGA without pre-incubation, 100 nM Ab: ETP” value is 2170 nM·min; the “TGA without pre-incubation, 100 nM Ab: Lag Time” value turned out to be 5.2 min; the “TGA without pre-incubation, 100 nM Ab: Peak IIa” value came to 221 nM. In assay [2], this molecule came in with a Kd of 72.1 nM.

B6: anti-TF antibody 43D (antibody, human IgG1, V domains shown)
VH: QVQLQQWGAGLLKPSETLSLTCAVYGGSLSGYYWSWIRQPPGKGLEWIGEIGASGSTRYNPSLKSRVTISVDTSKNQFSLKLSSVTAADTAVYYCARDTPYYYEGGYYYYMDVWGKGTTVTVSS
VL: B5 VL with E27Q, D30S, T54S, Q56A, A92V
As for B6, in assay [8], the “% GM-CSF, 2.56 nM antibody, MDA-MB-231 cells + FVIIa” value (from here on “% GM-CSF, 2.56 nM antibody”) is 56%; the “% GM-CSF, 6.4 nM antibody, MDA-MB-231 cells + FVIIa” value (shortened to “% GM-CSF, 6.4 nM antibody”) is 24%; the “% GM-CSF, 16 nM antibody, MDA-MB-231 cells + FVIIa” value was 13%; the “% GM-CSF, 40 nM antibody, MDA-MB-231 cells + FVIIa” value was 11%. In addition, the “% GM-CSF, 100 nM antibody, MDA-MB-231 cells + FVIIa” value in assay [8] amounted to 12%.

B7: 43D (antibody, human IgG1, V domains shown)
VH: B6 VH
VL: B5 VL with E27Q, D30S, T54S, Q56A, A92V
notes: human IgG1
As for B7, the dissociation constant (Kd) in [2] is 281 nM; in assay [6], 4.12 nM; in [3], 3.84 nM; in assay [4], 5.66 nM; in assay [5], 2.09 nM.

B8: 43B (antibody, human IgG1, V domains shown)
VH: B5 VH
VL: B5 VL with E27Q, D30S, T54S, Q56A, A92V
notes: human IgG1
Regarding B8, the Kd in assay [2] was determined as 161 nM; in [6], 3.4 nM; in [3], 2.4 nM; in assay [4], 5.64 nM; in assay [5], 1.75 nM.

B9: anti-TF antibody 43B7 (antibody, human IgG1, V domains shown)
VH: B5 VH
VL: B5 VL with S53D, T54S, Q56A, A92D
Turning to B9, in assay [8], the “% GM-CSF, 2.56 nM antibody” value came to 50% and the “% GM-CSF, 6.4 nM antibody” value was 17%.

B10: 43D (antibody, V domains shown)
VH: B6 VH
VL: B5 VL with E27Q, D30S, T54S, Q56A, A92V
Regarding B10, in [9], the “% IL8, 2.56 nM Ab” value worked out at 58%; the “% IL8, 6.4 nM Ab” value came out at 21%; the “% IL8, 40 nM Ab” value turned out to be 5%; the “% IL8, 100 nM Ab” value came out at 5%. For the same molecule, the “% FXa, 25 nM Ab” value in assay [10] is 109%.

B11: anti-TF antibody 43B1 (antibody, human IgG1, V domains shown)
VH: B5 VH
VL: B5 VL
Turning to B11, in assay [8], the “% GM-CSF, 2.56 nM antibody” value was 50% and the “% GM-CSF, 6.4 nM antibody” value was found to be 16%.

B12: 43B7 (antibody, human IgG1, V domains shown)
VH: B5 VH
VL: B5 VL with S53D, T54S, Q56A, A92D
notes: human IgG1
Consider B12, for which the Kd in assay [2] is 360 nM; in assay [6] it was 0.94 nM; in assay [3] it was 0.86 nM; in [4], 0.24 nM; in assay [5] it was 0.14 nM.

B13: 5G9 (humanized TF8-5G9, CNTO 860) (antibody, V domains shown)
VH: QVQLVESGGGVVQPGRSLRLSCKASGFNIKDYYMHWVRQAPGKGLEWIGLIDPENGNTIYDPKFQGRFTISADNSKNTLFLQMDSLRPEDTAVYYCARDNSYYFDYWGQGTPVTVSS
VL: DIQMTQSPSSLSASVGDRVTITCKASQDIRKYLNWYQQKPGKAPKLLIYYATSLADGVPSRFSGSGSGTDYTFTISSLQPEDIATYYCLQHGESPYTFGQGTKLEIT
As to B13, in assay [10], the “% FXa, 12.5 nM Ab” value is 37%; the “% FXa, 25 nM Ab” value is 33%; the “% FXa, 50 nM Ab” value is 30%; the “% FXa, 100 nM Ab” value was 30%.
